According to US20240352105A1, “COMPOSITIONS AND METHODS FOR NEUTRALIZING ANTIGENS” (PACAGEN, INC, priority 2023, published 2024):
Where “and” joins values, the source holds several entries; their conditions need not be identical. Equal values may be shown once.

How the values were obtained:
[1] = test system: biotinylated anti-His antibody; assay: Recombinant Can f1-His ELISA binding assay
Protocol: (§1) In order to obtain single variable domain on heavy chain, i.e., VHH, specific for dog allergen Can f1, a recombinant His-tagged Can f1 was prepared, which reached high purity, as shown via SDS-Page Western blotting in FIG. 4. To confirm this, an ELISA was performed measuring optical density when the recombinant Can f1-His is incubated with a biotinylated anti-His antibody. As summarized in Table 4, the recombinant Can f1-His was effectively bound by the antibody.

[2] = test system: biotinylated anti-His antibody; assay: Recombinant Can f2-His ELISA binding assay
Protocol: as §1, with “f2,” for “f1,”, “f2” for “f1”, “6.” for “4.”, “f2-His” for “f1-His”, “7,” for “4,”

[3] = Thermostability (Tm, Tonset, Tagg) by Nanotemper DSF; assay type: physicochemical; set-up: key to Tm2 / Tagg / Tm1 / Tm / Tm3 / Tonset / Tonset ø (mean) / Tagg ø (mean): temperatures in °C; settings: for Tm: single melting point; for Tm1: first melting point; for Tm2: second melting point
Protocol: Isolated VHH clones were further validated by performing an ELISA assay as described in Example 1. Metrics of thermostability including melting temperature (Tm), onset temperature (Tonset), and temperature of aggregation (Tagg), were also tested with increasing temperature in the range of 20° C.-95° C. at the speed of 1° C./min. These measurements were performed using a Nanotemper DSF. When applicable, Tm1 refers to the first melting point observed, Tm2 refers to the second melting point observed, etc., Sequence information for the VHH clones and the binding assay results are summarized in Table 3. The individual binding curves are shown for each candidate in FIGS. 3B-3I.
(§2) Isolated VHH clones were further validated by performing an ELISA assay as described in Example 1. Metrics of thermostability including melting temperature (Tm), onset temperature (Tonset), and temperature of aggregation (Tagg), were also tested with increasing temperature in the range of 20° C.-95° C. at the speed of 1° C./min. The individual binding curves are shown for each candidate in FIGS. 5B-5H.
as §2, with “7B-7P.” for “5B-5H.”
The detailed thermostability graphs used to determine the Tm, Tonset, and Tagg are illustrated in FIGS. 19A-19I and raw data is summarized in Table 23. Any subsequent melting points observed (Tm1, Tm2, Tm3, etc.) are separated by commas.

Fel D1 = molecular target: T1, Fel D1 (Felis catus, UniProt P30438); assay: ELISA binding assay of anti-Fel d1 VHH clones on Fel D1 epitopes; set-up: species or system cat
T1 construct: made in house; host or cells: chemically synthesized peptides
Protocol: (§3) 2 microgram per milliliter (μg/mL) target antigen is coated in a 96-well plate and ELISA assay is performed after incubation with candidate VHHs. The binding EC50 of each clone is calculated using Prism GraphPad. The positive control antibody is involved as an internal control.
Four distinct epitopes of Fel D1 were selected to be used for further identification. Peptides were synthesized for the four epitopes for VHH identification.
Isolated VHH clones were further validated by performing an ELISA assay as described in Example 1. Binding results are shown in FIG. 15B-15D for the epitope of SEQ ID NO: 61. Binding results are shown in FIG. 16 for the epitope of SEQ ID NO: 59. Binding results are shown in FIG. 17A-17E for the epitope of SEQ ID NO: 60. Binding results are shown in FIG. 18 for the epitope of SEQ ID NO: 58.

[4] = molecular target: T2, recombinant His-tagged Can f1 (dog (Canis familiaris), UniProt O18873 19-174); assay: ELISA, antigen coated
T2 construct: also called Can f1-His; recombinant Can f1; not shown: His tag
Protocol: as §3
as §2, with “(Tₘ),” for “(Tm),”, “(Tₒₙₛₑₜ),” for “(Tonset),”

[5] = test system: known Der p2 antibody (clone 6OY4); assay: Recombinant Der p2-His ELISA binding assay
Protocol: In order to obtain single variable domain on heavy chain, i.e., VHH, specific for dust mite allergen Der p2, a recombinant His-tagged Der p2 was prepared, which reached high purity, as shown via SDS-Page Western blotting in FIG. 2. To confirm this, an ELISA was performed. Briefly, the Der p2-HIS was coated onto an ELISA plate and a known Der p2 antibody (clone 6OY4) was added. A secondary detection antibody capable of binding to the Der p2 antibody was then added. The secondary detection antibody was conjugated to a horseradish peroxidase, which can be utilized to produce a colorimetric reaction. Then, optical density was measured. As summarized in Table 1, the recombinant Der p2-His was effectively bound by the antibody.

[6] = Average of two replicates, anti-Fel d1 VHH
[7] = Average of two replicates, anti-Fel d1 VHH, in °C (unit assumed)
[8] = Replicate 1, in °C (unit assumed)
[9] = Replicate 2, in °C (unit assumed)
[10] = anti-Fel d1 VHH, in °C (unit assumed)
[11] = anti-Can f1 VHH, 20° C.-95° C. at 1° C./min
[12] = anti-Can f1 VHH, in °C (unit assumed)
[13] = Epitope Recognized ENARILKNCVDAKM (SEQ ID NO: 61)

T2 sequence (O18873 19-174 limits assumed): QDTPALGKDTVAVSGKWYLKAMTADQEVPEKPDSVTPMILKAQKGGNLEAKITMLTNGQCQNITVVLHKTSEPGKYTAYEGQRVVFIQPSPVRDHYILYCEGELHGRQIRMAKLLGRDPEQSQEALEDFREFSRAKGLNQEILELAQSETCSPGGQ

## Can f1-His: recombinant His-tagged dog allergen Can f1
[1]; Can f1-His Concentration 0.00064 μg/mL
  OD at 450 nm: 0.07 and 0.11
[1]; Can f1-His Concentration 0.0032 μg/mL
  OD at 450 nm: 0.09 and 0.11
[1]; Can f1-His Concentration 0.016 μg/mL
  OD at 450 nm: 0.09 and 0.12
[1]; Can f1-His Concentration 0.08 μg/mL
  OD at 450 nm: 0.15 and 0.16
[1]; Can f1-His Concentration 0.4 μg/mL
  OD at 450 nm: 0.21 and 0.24
[1]; Can f1-His Concentration 2 μg/mL
  OD at 450 nm: 0.95 and 1.03
[1]; Can f1-His Concentration 10 μg/mL
  OD at 450 nm: 2.84 and 2.92

B1: Can f2-His: recombinant His-tagged dog allergen Can f2 (protein)
chain: QEGNHEEPQGGLEELSGRWHSVALASNKSDLIKPWGHFRVFIHSMSAKDGNLHGDILIPQDGQCEKVSLTAFKTATSNKFDLEYWGHNDLYLAEVDPKSYLILYMINQYNDDTSLVAHLMVRDLSRQQDFLPAFESVCEDIGLHKDQIVVLSDDDRCQGSRD
modifications: left off: small tags and cut ends
[2]; Can f2-His Concentration 0.00064 μg/mL
  OD at 450 nm: 0.10 and 0.11
[2]; Can f2-His Concentration 0.0032 μg/mL
  OD at 450 nm: 0.11
[2]; Can f2-His Concentration 0.016 μg/mL
  OD at 450 nm: 0.10 and 0.11
[2]; Can f2-His Concentration 0.08 μg/mL
  OD at 450 nm: 0.12 and 0.13
[2]; Can f2-His Concentration 0.4 μg/mL
  OD at 450 nm: 0.22 and 0.19
[2]; Can f2-His Concentration 2 μg/mL
  OD at 450 nm: 0.57 and 0.65
[2]; Can f2-His Concentration 10 μg/mL
  OD at 450 nm: 1.12 and 1.07

B2: SDAB22110-3-2-H08: anti-Fel d1 VHH clone, SEQ ID NO: 53 (protein)
VHH: QVQLVESGGGLVQPGGSLRLSCAASGFTFSRKGMSWYRQVPGKEREWVARIYSTGEKTDYADSVKGRFTISRDNAKNMVYLDMNSLKPEDTAVYYCKAWGYEYWNQGTQVTVSS
[3]; [6]
  Tagg ø (mean): 42.30
  Tonset ø (mean): 37.18
[3]; [7]
  Tm ø (mean), first melting point (Tm1): 47.50
[3]; Replicate 1
  Tagg: 42.41
  Tonset: 37.03
[3]; [8]
  Tm, first melting point (Tm1): 47.46
[3]; Replicate 2
  Tagg: 42.19
  Tonset: 37.34
[3]; [9]
  Tm, first melting point (Tm1): 47.53
[3]; anti-Fel d1 VHH
  Tagg: 35.68
[3]; [10]
  Tm: 42.43
Fel D1; Epitope Recognized AKMTEEDKENALS (SEQ ID NO: 60)
  EC50: 5.024 µg/mL

B3: SDAB22112-1-D12 (VHH)
VHH: AVQLVDSGGGLVQAGGSLRLACAASGRTFDTYAVGWFRQAPGKERDVVASITWTSGSTWYADFVKGRFTISKDNAKNTVYLQMNNLSPEDTAVYYCGARNQIYTRWDSWGQGTQVTVSS
notes: anti-Can f1 alpaca VHH
[3]; [11]
  Tagg: 49.15
[3]; [12]
  Tm: 57.78
[4]
  EC50: 4.01 µg/mL

B4: SDAB22112-2-B06 (VHH)
VHH: QVQLVESGGGLVQPGGSLRLSCAASGFTFRLAAMGWYRQAPEKEREWVASITGPGTDTNYADSVKGRFTVSRDNAKNTVYLQMNSLKPEDTAVYYCRGMGYWGKGTLVTVSS
notes: anti-Can f1 alpaca VHH
[3]; [11]
  Tagg: 48.00
[3]; [12]
  Tm1: 56.38
  Tm2: 63.74
[3]; anti-Can f1 VHH, third melting point, in °C (unit assumed)
  Tm3: 70.13
[4]
  EC50: 0.144 µg/mL

B5: SDAB22110-1-1-B9-1: anti-Fel d1 VHH clone, SEQ ID NO: 50 (protein)
VHH: DVQLVESGGGWVQPGGSLRLSCAASGFTFTSYALSWVRQAPGKGLEWVSLADARGTSTTYADSVKGRFTISKDNPRNTLYLLMNSLKPEDTAVYYCTKGFDGNWYPDYDYWGQGTQVTVSS
[3]; [6]
  Tagg ø (mean): 41.73
  Tonset ø (mean): 42.07
[3]; [7]
  Tm ø (mean), first melting point (Tm1): 54.03
  Tm ø (mean), second melting point (Tm2): 63.20
[3]; Replicate 1
  Tagg: 41.73
  Tonset: 42.11
[3]; [8]
  Tm, first melting point (Tm1): 53.95
  Tm, second melting point (Tm2): 63.26
[3]; Replicate 2
  Tagg: 41.73
  Tonset: 42.04
[3]; [9]
  Tm, first melting point (Tm1): 54.10
  Tm, second melting point (Tm2): 63.15
[3]; anti-Fel d1 VHH
  Tagg: 41.73
  aggregates: Possible
[3]; [10]
  Tm1: 54.03
  Tm2: 63.20
Fel D1; [13]
  EC50: 14.440 µg/mL

B6: Der p2-His: recombinant His-tagged dust mite allergen Der p2 (protein)
chain: DQVDVKDCANHEIKKVLVPGCHGSEPCIIHRGKPFQLEAVFEANQNTKTAKIEIKASIDGLEVDVPGIDPNACHYMKCPLVKGQQYDIKYTWNVPKIAPKSENVVVTVKVMGDDGVLACAIATHAKIRD
modifications: left off: small tags and cut ends
[5]; Der p2-His Concentration 0.00064 μg/mL
  OD at 450 nm: 0.07 and 0.09
[5]; Der p2-His Concentration 0.0032 μg/mL
  OD at 450 nm: 0.09 and 0.10
[5]; Der p2-His Concentration 0.016 μg/mL
  OD at 450 nm: 0.11 and 0.12
[5]; Der p2-His Concentration 0.08 μg/mL
  OD at 450 nm: 0.38 and 0.35
[5]; Der p2-His Concentration 0.4 μg/mL
  OD at 450 nm: 1.31 and 1.37
[5]; Der p2-His Concentration 2 μg/mL
  OD at 450 nm: 4.06 and 4.02
[5]; Der p2-His Concentration 10 μg/mL
  OD at 450 nm: 4.61 and 4.57

B7: SDAB22110-1-1-E4: anti-Fel d1 VHH clone, SEQ ID NO: 51 (protein)
VHH: QLQLVESGGGLVQPGGSLRLSCTASGFTFSTAGTSWYRQSPGKARKLVAELSRIGGIANYADSVKGRFTISRDNTRNTVYLQMNSLKPEDTAVYYCKVVTNRNYGFTYWGQGTQVTVSS
[3]; [6]
  Tagg ø (mean): 39.61
  Tonset ø (mean): 40.64
[3]; [7]
  Tm ø (mean), first melting point (Tm1): 50.69
[3]; Replicate 1
  Tagg: 39.62
  Tonset: 40.60
[3]; [8]
  Tm, first melting point (Tm1): 50.73
[3]; Replicate 2
  Tagg: 39.61
  Tonset: 40.64
[3]; [9]
  Tm, first melting point (Tm1): 50.66
[3]; anti-Fel d1 VHH
  Tagg: 42.78
  aggregates: Possible
[3]; [10]
  Tm1: 41.13
  Tm2: 52.88
Fel D1; [13]
  EC50: 3.305 µg/mL
